Assay results reported in article PMC7749166 (Communications Biology, 2020).

Tests used:
[1] = tested on: C5aR with mutations Y11F and Y14F; conditions: cited from earlier work
Description: In line with our results, intrinsic binding energies have been previously described for intramolecular binding events inv ...

C5aR^D282A = target: T1, C5aR^D282A (Homo sapiens, UniProt P21730, D282A); assay: FD-/FV-based AFM dynamic force spectroscopy vs D282A mutant; assay type: binding
T1 construct: Flag (N); His8 (C); made in house; host or cells: HEK-293S cells (BacMam baculovirus)
T1 sequence (P21730 1-350 D282A): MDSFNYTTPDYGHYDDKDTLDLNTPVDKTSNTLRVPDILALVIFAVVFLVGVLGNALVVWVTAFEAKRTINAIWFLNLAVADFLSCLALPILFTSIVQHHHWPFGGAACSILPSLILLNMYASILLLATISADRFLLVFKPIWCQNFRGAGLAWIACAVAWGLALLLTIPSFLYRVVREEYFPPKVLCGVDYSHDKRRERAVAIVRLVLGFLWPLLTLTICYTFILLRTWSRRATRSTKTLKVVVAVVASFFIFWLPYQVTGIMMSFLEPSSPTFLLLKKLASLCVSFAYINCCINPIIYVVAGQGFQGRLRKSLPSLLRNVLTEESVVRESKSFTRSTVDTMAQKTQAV
Procedure: (§1) The reconstituted C5aR sample solution (either wt-C5aR or mutants) was 20-fold diluted in fusion buffer solution (20 mM HEPES, 300 mM NaCl, and 25 mM MgCl2) and adsorbed on freshly cleaved mica for 15 min. After rinsing with imaging buffer (20 mM HEPES and 300 mM NaCl) the sample was transferred to the AFM.
Rectangular Si3N4 AFM cantilevers with silicon tips (BioLever mini, Bruker) were first cleaned with chloroform for 10 min, rinsed with ethanol, N2 dried, and then cleaned for 15 min in an ultraviolet radiation and ozone cleaner (UV-O, Jetlight, CA, USA). For the aminofunctionalization, the cantilevers were immersed in an ethanolamine solution (3.3 g ethanolamine in 6.6 ml DMSO) overnight and then rinsed in DMSO (3 × 1 min) and ethanol (3 × 1 min), followed by N2 drying. This was followed by the N-hydroxysuccinimide (NHS)-PEG27-acetal linker attachment. A 1 mg portion of the NHS-PEG27-acetal linker (JKU, Linz, Austria) was diluted in 0.5 ml chloroform with 30 µl triethylamine and the cantilevers were immersed in this solution for 2 h. After three rinsing steps of 10 min in chloroform and N2 drying, the cantilevers were immersed in a 1% citric acid solution for 10 min, rinsed with pure water (3 × 5 min), and dried with N2 once more. tris-NTA-derivatized AFM cantilevers were obtained by pipetting 100 µl of a 100 µM tris-N-nitrilotriacetic amine trifluoroacetate (Toronto Research Chemicals, Canada) (tris-NTA) solution onto the cantilevers, followed by the addition of 2 μl of a freshly prepared 1 M NaCNBH3 solution. The cantilevers were incubated for 1 h, then 5 μl of a 1 M ethanolamine solution pH 8.0 was added for 10 min to quench the reaction. tris-NTA cantilevers were further used to obtain C5a-derivatized tips. For this purpose, 100 μl of a 1 μM C5a protein solution was premixed with 5 μl NiCl2 5 mM and the mixture was pipetted onto the tris-NTA cantilevers. After 2 h of incubation time, the cantilevers were washed in HEPES buffer 3 × 5 min.
(JKU, Linz, Austria) dissolved in 0.5 ml of chloroform with 30 μl of triethylamine, then washed with chloroform and dried with N2. […] After 3 h of reaction, cantilevers were washed with PBS 3 × 5 min.
AFM experiments were performed with a Multimode 8 AFM equipped with a Nanoscope V controller (Bruker, Santa Barbara, CA, USA) operated in “PeakForce Tapping QNM mode”. All measurements were carried out in imaging buffer at room temperature (≈24 °C). […]
(§2) In FD-based AFM measurements, the AFM cantilever is oscillated in a sinusoidal manner well below its resonance frequency, while the sample surface is contoured pixel-by-pixel. For each approach–retraction cycle of the oscillating cantilever, a force–distance curve is recorded. […] Adhesion maps were recorded using a scan rate of 0.2 Hz and 256 × 256 pixels. […]

C5aR∆Tyr = assay: FD-/FV-based AFM dynamic force spectroscopy vs Tyr mutant (Y11F, Y14F); assay type: binding, human; conditions: C5a tip (probes effector site), FNdY fit
Description: Finally, to obtain the full picture of the binding mechanism between C5a and its receptor, we also investigated the binding interaction between the C-terminal segment of C5a and the effector site. To achieve this, we abolished the interaction that the rigid core of C5a establishes with sulfonated residues at the binding site, so the C5aR∆Tyr mutant with mutation sites Y11F and Y14F was generated. The lack of sulfonation on the C5aR∆Tyr mutant was validated by western blot using anti-sulfated tyrosine antibodies (Fig. S1). The interaction between the C5a ligand and C5aR∆Tyr was measured and the dependence of the rupture force with the loading rate was plotted in the DFS graph in Fig. 5d. We extracted an equilibrium force Feq of 32 ± 5 pN, a binding equilibrium free energy ΔGbu of −4.7 ± 1.4 kcal mol^−1, and a receptor–ligand half-residence time, τ0.5 of 0.6 ms.
as §1
(§3) Rectangular Si3N4 AFM cantilevers with silicon tips (BioLever mini, Bruker) were first cleaned with chloroform for 10 min, rinsed with ethanol, N2 dried, and then cleaned for 15 min in an ultraviolet radiation and ozone cleaner (UV-O, Jetlight, CA, USA). For the aminofunctionalization, the cantilevers were immersed in an ethanolamine solution (3.3 g ethanolamine in 6.6 ml DMSO) overnight and then rinsed in DMSO (3 × 1 min) and ethanol (3 × 1 min), followed by N2 drying. This was followed by the N-hydroxysuccinimide (NHS)-PEG27-acetal linker attachment. A 1 mg portion of the NHS-PEG27-acetal linker (JKU, Linz, Austria) was diluted in 0.5 ml chloroform with 30 µl triethylamine and the cantilevers were immersed in this solution for 2 h. […]

C5aR extracellular side = assay: AFM affinity imaging with C5a tip: specificity and receptor height; assay type: binding, human; conditions: free C5a in solution
Procedure: as §1
as §3, with “attachment.” for “attachment. A 1 mg portion of the NHS-PEG27-acetal linker (JKU, Linz, Austria) was diluted in 0.5 ml chloroform with 30 µl triethylamine and the cantilevers were immersed in this solution for 2 h.”
as §2
Several control experiments were designed to ensure that the measured interactions were indeed specific and the functionalization of the AFM tip successful. […]

[2] = FNdY fit, ± s.e.m., ligand-derivatized AFM tip, 20 mM HEPES, 300 mM NaCl, ≈24 °C

B1: C5a: C5a, a large 74-amino acid glycoprotein; endogenous ligand of C5aR (His6-tag at N-terminal end for AFM tips) (protein)
chain: TLQKKIEEIAAKYKHSVVKKCCYDGACVNNDETCEQRAARISLGPRCIKAFTECCVVASQLRANISHKDMQLGR
modifications: left off: His6, N-terminal, kept
- signaling of C5aR induced by C5a upon Y11F and Y14F mutations [1]: could almost abolish the signaling of C5aR
- drop of the ΔGbu vs wild type (C5aR^D282A; AFM, D282A vs WT): four
- binding equilibrium free energy ΔGbu (C5aR^D282A; [2]): -3.4 ± 0.7 kcal/mol
- equilibrium force Feq (C5aR^D282A; [2]): 27 ± 3 pN
- residence time τ0.5 (C5aR^D282A; FNdY fit, ligand-derivatized AFM tip, 20 mM HEPES, 300 mM NaCl, ≈24 °C): 0.08 ms
- residence time τ0.5 (C5aR∆Tyr): 0.6 ms
- binding equilibrium free energy ΔGbu (C5aR∆Tyr; ± s.e.m.): -4.7 ± 1.4 kcal/mol
- equilibrium force Feq (C5aR∆Tyr; ± s.e.m.): 32 ± 5 pN
- binding probability of C5a tip after blocking with free C5a (C5aR extracellular side): significantly reduces the binding probability
